Key:
[1] = molecular target: T1, Polθ-hel WT (DNA polymerase theta helicase domain) (human, UniProt O75417 1-894); test: EMSA
[2] = molecular target: T1, Polθ-hel WT (DNA polymerase theta …); test: fluorescence anisotropy
[3] = molecular target: T1, Polθ-hel WT (DNA polymerase theta …); test: cryo-EM structure

T1 sequence (O75417 1-894): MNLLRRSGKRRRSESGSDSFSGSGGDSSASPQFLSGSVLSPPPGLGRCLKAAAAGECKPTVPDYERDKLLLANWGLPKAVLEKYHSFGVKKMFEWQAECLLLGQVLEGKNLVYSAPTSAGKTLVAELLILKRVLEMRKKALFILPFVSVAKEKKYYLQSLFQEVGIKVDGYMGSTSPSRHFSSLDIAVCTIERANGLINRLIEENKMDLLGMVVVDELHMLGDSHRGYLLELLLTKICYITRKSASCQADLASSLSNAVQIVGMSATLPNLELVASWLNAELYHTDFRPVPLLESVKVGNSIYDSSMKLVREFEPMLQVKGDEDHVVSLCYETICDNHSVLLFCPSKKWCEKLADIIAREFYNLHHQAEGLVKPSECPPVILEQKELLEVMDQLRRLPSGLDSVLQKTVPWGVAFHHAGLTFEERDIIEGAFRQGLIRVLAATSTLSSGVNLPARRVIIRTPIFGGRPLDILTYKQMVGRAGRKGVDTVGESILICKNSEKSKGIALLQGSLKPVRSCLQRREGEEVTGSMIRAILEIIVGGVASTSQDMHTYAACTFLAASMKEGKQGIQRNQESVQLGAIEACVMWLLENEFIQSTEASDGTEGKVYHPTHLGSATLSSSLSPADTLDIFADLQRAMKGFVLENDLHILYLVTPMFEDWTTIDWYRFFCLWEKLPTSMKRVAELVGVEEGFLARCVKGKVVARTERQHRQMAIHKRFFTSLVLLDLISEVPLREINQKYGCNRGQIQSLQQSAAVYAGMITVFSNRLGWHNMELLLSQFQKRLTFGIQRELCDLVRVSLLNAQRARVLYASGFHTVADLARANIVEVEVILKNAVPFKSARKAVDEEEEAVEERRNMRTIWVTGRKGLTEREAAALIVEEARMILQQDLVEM

| Binder | binding result [1] | binding result [2] | also measured |
| --- | --- | --- | --- |
| 15-nt poly(T) without MH (unlabeled) (dsDNA) DNA 1: CCAACCGACCACACCCACCACCCTACCGCCTTTTTTTTTTTTTTT DNA 2: GGCGGTAGGGTGGTGGGTGTGGTCGGTTGG | binds | – | – |
| FAM-11T + MH (dsDNA) DNA 1: CCAACCGACCACACCCACCACCCTACCGCCTTTTTTTTTTTCCCGGG DNA 2: GGCGGTAGGGTGGTGGGTGTGGTCGGTTGG | – | binds | – |
| 11-nt poly(T) with MH (unlabeled) (dsDNA) DNA 1: CCAACCGACCACACCCACCACCCTACCGCCTTTTTTTTTTTCCCGGG DNA 2: GGCGGTAGGGTGGTGGGTGTGGTCGGTTGG | – | – | binding result [3]: binds |
| FAM-9T + MH (dsDNA) DNA 1: CCAACCGACCACACCCACCACCCTACCGCCTTTTTTTTTCCCGGG DNA 2: GGCGGTAGGGTGGTGGGTGTGGTCGGTTGG | – | binds | – |
| 9-nt poly(T) with MH (unlabeled) (dsDNA) DNA 1: CCAACCGACCACACCCACCACCCTACCGCCTTTTTTTTTCCCGGG DNA 2: GGCGGTAGGGTGGTGGGTGTGGTCGGTTGG | binds | – | – |
| FAM-15T no MH (dsDNA) DNA 1: CCAACCGACCACACCCACCACCCTACCGCCTTTTTTTTTTTTTTTTT DNA 2: GGCGGTAGGGTGGTGGGTGTGGTCGGTTGG | – | binds | – |

From article PMC12009414
